Like-named read-outs stand apart in the source and are kept apart here.
How the values were obtained:
[1] = target: SV2C, the BoNT/A protein receptor, rat (rat (endogenous in primary rat spinal cord cells)) (UniProt Q9Z2I6)
[2] = target: SV2C, the BoNT/A protein receptor, human (human (endogenous in hiPSC-derived motor neurons)) (UniProt Q496J9)
[3] = target: SV2C, the BoNT/A protein receptor, rat (rat (endogenous in primary rat spinal cord cells)) (UniProt Q9Z2I6); remark: listed apart in the source

UniProt Q9Z2I6, sequence (Q9Z2I6 whole entry): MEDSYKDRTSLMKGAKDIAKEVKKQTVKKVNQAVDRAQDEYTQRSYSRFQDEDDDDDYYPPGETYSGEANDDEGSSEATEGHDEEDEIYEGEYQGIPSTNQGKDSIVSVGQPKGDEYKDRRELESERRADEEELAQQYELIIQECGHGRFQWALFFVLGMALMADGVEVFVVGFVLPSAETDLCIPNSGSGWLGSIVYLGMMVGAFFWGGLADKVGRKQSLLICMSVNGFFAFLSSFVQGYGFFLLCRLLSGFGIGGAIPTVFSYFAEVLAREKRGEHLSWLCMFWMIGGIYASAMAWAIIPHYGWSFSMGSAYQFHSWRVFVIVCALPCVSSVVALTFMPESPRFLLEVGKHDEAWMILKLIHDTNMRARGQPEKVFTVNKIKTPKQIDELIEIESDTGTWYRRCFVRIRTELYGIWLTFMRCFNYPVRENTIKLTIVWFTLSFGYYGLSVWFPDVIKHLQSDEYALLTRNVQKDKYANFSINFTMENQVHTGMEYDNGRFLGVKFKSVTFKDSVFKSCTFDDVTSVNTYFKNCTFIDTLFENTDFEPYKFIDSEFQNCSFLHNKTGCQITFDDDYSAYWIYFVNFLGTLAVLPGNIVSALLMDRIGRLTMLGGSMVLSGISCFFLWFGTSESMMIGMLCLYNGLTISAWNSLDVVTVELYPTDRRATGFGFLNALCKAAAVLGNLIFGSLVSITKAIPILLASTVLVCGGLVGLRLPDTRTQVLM
UniProt Q496J9, sequence (Q496J9 whole entry): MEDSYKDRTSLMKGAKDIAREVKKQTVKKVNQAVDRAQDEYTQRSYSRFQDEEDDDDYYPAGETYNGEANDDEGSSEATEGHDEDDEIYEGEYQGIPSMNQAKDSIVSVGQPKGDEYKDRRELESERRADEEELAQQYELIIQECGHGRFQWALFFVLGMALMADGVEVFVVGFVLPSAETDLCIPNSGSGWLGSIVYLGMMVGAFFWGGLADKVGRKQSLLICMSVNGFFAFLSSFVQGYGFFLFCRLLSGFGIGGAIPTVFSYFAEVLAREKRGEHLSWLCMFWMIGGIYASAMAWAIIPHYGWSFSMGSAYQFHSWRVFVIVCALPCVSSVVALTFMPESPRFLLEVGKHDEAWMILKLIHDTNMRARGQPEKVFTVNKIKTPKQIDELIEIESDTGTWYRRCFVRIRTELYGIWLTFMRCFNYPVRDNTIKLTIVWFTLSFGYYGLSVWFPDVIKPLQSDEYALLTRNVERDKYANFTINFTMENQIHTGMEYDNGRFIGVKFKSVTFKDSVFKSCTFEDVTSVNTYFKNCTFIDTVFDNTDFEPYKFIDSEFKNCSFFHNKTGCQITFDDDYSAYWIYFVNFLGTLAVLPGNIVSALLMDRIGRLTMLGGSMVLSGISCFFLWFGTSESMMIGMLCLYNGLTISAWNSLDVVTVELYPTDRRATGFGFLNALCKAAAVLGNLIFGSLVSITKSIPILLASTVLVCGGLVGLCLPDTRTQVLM

## Botulinum neurotoxin subtype A1 (BoNT/A1), 150-kDa holotoxin (from UniProt P0DPI0) (natural protein)
[1]
  EC50 RSC (SNAP-25 cleavage in primary rat spinal cord cells, 48 h): 1 pg/Well
[2]
  EC50 MN (SNAP-25 cleavage in hiPSC derived motor neurons, 48 h): 0.07 pg/Well
[3]
  EC50 RSC (SNAP-25 cleavage in primary rat spinal cord cells, 48 h): 1.1 pg/Well

From article PMC10055998
